Laboratory results as given in patent publication US20260242735A1.

Legend:
human CD33 S97A (human) = human CD33 S97A (human) (UniProt P20138); assay: alanine scan, flow cytometry, HEK293-T
human CD33 F118A (human) = human CD33 F118A (human) (UniProt P20138); assay: alanine scan, flow cytometry, HEK293-T
human CD33 N100A (human) = human CD33 N100A (human) (UniProt P20138); assay: alanine scan, flow cytometry, HEK293-T
human CD33 L78A (human) = human CD33 L78A (human) (UniProt P20138); assay: alanine scan, flow cytometry, HEK293-T
human CD33 I149A (human) = human CD33 I149A (human) (UniProt P20138); assay: alanine scan, flow cytometry, HEK293-T
human CD33 A74S (human) = human CD33 A74S (human) (UniProt P20138); assay: alanine scan, flow cytometry, HEK293-T
human CD33 S194A (human) = human CD33 S194A (human) (UniProt P20138); assay: alanine scan, flow cytometry, HEK293-T
human CD33 N113A (human) = human CD33 N113A (human) (UniProt P20138); assay: alanine scan, flow cytometry, HEK293-T
human CD33 P55A (human) = human CD33 P55A (human) (UniProt P20138); assay: alanine scan, flow cytometry, HEK293-T
Chain of human CD33 P55A (human) (P20138 18-364 P55A limits assumed): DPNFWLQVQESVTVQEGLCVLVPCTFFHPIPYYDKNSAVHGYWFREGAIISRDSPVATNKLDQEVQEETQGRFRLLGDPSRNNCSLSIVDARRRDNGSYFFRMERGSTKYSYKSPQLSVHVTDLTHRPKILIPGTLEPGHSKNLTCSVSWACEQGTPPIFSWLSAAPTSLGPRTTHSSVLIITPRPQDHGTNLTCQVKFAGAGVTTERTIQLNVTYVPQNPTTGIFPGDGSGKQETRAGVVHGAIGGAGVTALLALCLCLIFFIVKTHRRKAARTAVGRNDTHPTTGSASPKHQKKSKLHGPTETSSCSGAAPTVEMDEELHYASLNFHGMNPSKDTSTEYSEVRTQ

human CD33 F61A (human) = human CD33 F61A (human) (UniProt P20138); assay: alanine scan, flow cytometry, HEK293-T
human CD33 F90A (human) = human CD33 F90A (human) (UniProt P20138); assay: alanine scan, flow cytometry, HEK293-T
human CD33 G94A (human) = human CD33 G94A (human) (UniProt P20138); assay: alanine scan, flow cytometry, HEK293-T
human CD33 G88A (human) = human CD33 G88A (human) (UniProt P20138); assay: alanine scan, flow cytometry, HEK293-T
human CD33 F117A (human) = human CD33 F117A (human) (UniProt P20138); assay: alanine scan, flow cytometry, HEK293-T
human CD33 V106A (human) = human CD33 V106A (human) (UniProt P20138); assay: alanine scan, flow cytometry, HEK293-T
human CD33 I67A (human) = human CD33 I67A (human) (UniProt P20138); assay: alanine scan, flow cytometry, HEK293-T
Chain of human CD33 I67A (human) (P20138 18-364 I67A limits assumed): as the sequence (P20138 18-364 P55A limits assumed) above, with A38P, I50A counted along it

human CD33 P96A (human) = human CD33 P96A (human) (UniProt P20138); assay: alanine scan, flow cytometry, HEK293-T
human CD33 S135A (human) = human CD33 S135A (human) (UniProt P20138); assay: alanine scan, flow cytometry, HEK293-T
human CD33 R111A (human) = human CD33 R111A (human) (UniProt P20138); assay: alanine scan, flow cytometry, HEK293-T
Chain of human CD33 R111A (human) (P20138 18-364 R111A limits assumed): as the sequence (P20138 18-364 P55A limits assumed) above, with A38P, R94A counted along it

human CD33 G172A (human) = human CD33 G172A (human) (UniProt P20138); assay: alanine scan, flow cytometry, HEK293-T
human CD33 K52A (human) = human CD33 K52A (human) (UniProt P20138); assay: alanine scan, flow cytometry, HEK293-T
human CD33 T192A (human) = human CD33 T192A (human) (UniProt P20138); assay: alanine scan, flow cytometry, HEK293-T
human CD33 P150A (human) = human CD33 P150A (human) (UniProt P20138); assay: alanine scan, flow cytometry, HEK293-T
Chain of human CD33 P150A (human) (P20138 18-364 P150A limits assumed): as the sequence (P20138 18-364 P55A limits assumed) above, with A38P, P133A counted along it

human CD33 C163A (human) = human CD33 C163A (human) (UniProt P20138); assay: alanine scan, flow cytometry, HEK293-T
human CD33 K126A (human) = human CD33 K126A (human) (UniProt P20138); assay: alanine scan, flow cytometry, HEK293-T
human CD33 R144A (human) = human CD33 R144A (human) (UniProt P20138); assay: alanine scan, flow cytometry, HEK293-T
human CD33 R109A (human) = human CD33 R109A (human) (UniProt P20138); assay: alanine scan, flow cytometry, HEK293-T
human CD33 E170A (human) = human CD33 E170A (human) (UniProt P20138); assay: alanine scan, flow cytometry, HEK293-T
human CD33 S54A (human) = human CD33 S54A (human) (UniProt P20138); assay: alanine scan, flow cytometry, HEK293-T
human CD33 P48A (human) = human CD33 P48A (human) (UniProt P20138); assay: alanine scan, flow cytometry, HEK293-T
Chain of human CD33 P48A (human) (P20138 18-364 P48A limits assumed): as the sequence (P20138 18-364 P55A limits assumed) above, with P31A, A38P counted along it

human CD33 H137A (human) = human CD33 H137A (human) (UniProt P20138); assay: alanine scan, flow cytometry, HEK293-T
Chain of human CD33 H137A (human) (P20138 18-364 H137A limits assumed): as the sequence (P20138 18-364 P55A limits assumed) above, with A38P, H120A counted along it

human CD33 L148A (human) = human CD33 L148A (human) (UniProt P20138); assay: alanine scan, flow cytometry, HEK293-T
human CD33 A168S (human) = human CD33 A168S (human) (UniProt P20138); assay: alanine scan, flow cytometry, HEK293-T
Chain of human CD33 A168S (human) (P20138 18-364 A168S limits assumed): as the sequence (P20138 18-364 P55A limits assumed) above, with A38P, A151S counted along it

human CD33 Y129A (human) = human CD33 Y129A (human) (UniProt P20138); assay: alanine scan, flow cytometry, HEK293-T
human CD33 D79A (human) = human CD33 D79A (human) (UniProt P20138); assay: alanine scan, flow cytometry, HEK293-T
Chain of human CD33 D79A (human) (P20138 18-364 D79A limits assumed): as the sequence (P20138 18-364 P55A limits assumed) above, with A38P, D62A counted along it

human CD33 R62A (human) = human CD33 R62A (human) (UniProt P20138); assay: alanine scan, flow cytometry, HEK293-T
human CD33 R69A (human) = human CD33 R69A (human) (UniProt P20138); assay: alanine scan, flow cytometry, HEK293-T
Chain of human CD33 R69A (human) (P20138 18-364 R69A limits assumed): as the sequence (P20138 18-364 P55A limits assumed) above, with A38P, R52A counted along it

human CD33 E84A (human) = human CD33 E84A (human) (UniProt P20138); assay: alanine scan, flow cytometry, HEK293-T
Chain of human CD33 E84A (human) (P20138 18-364 E84A limits assumed): as the sequence (P20138 18-364 P55A limits assumed) above, with A38P, E67A counted along it

human CD33 T86A (human) = human CD33 T86A (human) (UniProt P20138); assay: alanine scan, flow cytometry, HEK293-T
human CD33 V165A (human) = human CD33 V165A (human) (UniProt P20138); assay: alanine scan, flow cytometry, HEK293-T
human CD33 S164A (human) = human CD33 S164A (human) (UniProt P20138); assay: alanine scan, flow cytometry, HEK293-T
human CD33 S158A (human) = human CD33 S158A (human) (UniProt P20138); assay: alanine scan, flow cytometry, HEK293-T
human CD33 T185A (human) = human CD33 T185A (human) (UniProt P20138); assay: alanine scan, flow cytometry, HEK293-T
human CD33 P48S (human) = human CD33 P48S (human) (UniProt P20138); assay: flow cytometry on transfected cells, IgG
Chain of human CD33 P48S (human) (P20138 18-364 P48S limits assumed): as the sequence (P20138 18-364 P55A limits assumed) above, with P31S, A38P counted along it

human CD33 F43V (human) = human CD33 F43V (human) (UniProt P20138); assay: flow cytometry on transfected cells, IgG
Chain of human CD33 F43V (human) (P20138 18-364 F43V limits assumed): as the sequence (P20138 18-364 P55A limits assumed) above, with F26V, A38P counted along it

Chain of human CD33 F118A (human) (P20138 18-364 F118A limits assumed): as the sequence (P20138 18-364 P55A limits assumed) above, with A38P, F101A counted along it
Chain of human CD33 S97A (human) (P20138 18-364 S97A limits assumed): as the sequence (P20138 18-364 P55A limits assumed) above, with A38P, S80A counted along it

Refmab #7 (WM53) (antibody)
Mean % WT Binding (human CD33 S97A (human)): 128 % WT binding | Mean % WT Binding (human CD33 F118A (human)): 3.2 % WT binding | Mean % WT Binding (human CD33 N100A (human)): 128 % WT binding | Mean % WT Binding (human CD33 L78A (human)): 88.9 % WT binding | Mean % WT Binding (human CD33 I149A (human)): 96.9 % WT binding | Mean % WT Binding (human CD33 A74S (human)): 118 % WT binding | Mean % WT Binding (human CD33 S194A (human)): 112 % WT binding | Mean % WT Binding (human CD33 N113A (human)): 80 % WT binding | Mean % WT Binding (human CD33 P55A (human)): 94.7 % WT binding | Mean % WT Binding (human CD33 F61A (human)): 123 % WT binding | Mean % WT Binding (human CD33 F90A (human)): 83.3 % WT binding | Mean % WT Binding (human CD33 G94A (human)): 99.2 % WT binding | Mean % WT Binding (human CD33 G88A (human)): 115 % WT binding | Mean % WT Binding (human CD33 F117A (human)): 132 % WT binding | Mean % WT Binding (human CD33 V106A (human)): 126 % WT binding | Mean % WT Binding (human CD33 I67A (human)): 135 % WT binding | Mean % WT Binding (human CD33 P96A (human)): 98.7 % WT binding | Mean % WT Binding (human CD33 S135A (human)): 101 % WT binding | Mean % WT Binding (human CD33 R111A (human)): 94 % WT binding | Mean % WT Binding (human CD33 G172A (human)): 92.1 % WT binding | Mean % WT Binding (human CD33 K52A (human)): 76.8 % WT binding | Mean % WT Binding (human CD33 T192A (human)): 102 % WT binding | Mean % WT Binding (human CD33 P150A (human)): 115 % WT binding | Mean % WT Binding (human CD33 C163A (human)): 102 % WT binding | Mean % WT Binding (human CD33 K126A (human)): 156 % WT binding | Mean % WT Binding (human CD33 R144A (human)): 120 % WT binding | Mean % WT Binding (human CD33 R109A (human)): 127 % WT binding | Mean % WT Binding (human CD33 E170A (human)): 118 % WT binding | Mean % WT Binding (human CD33 S54A (human)): 100 % WT binding | Mean % WT Binding (human CD33 P48A (human)): 42.5 % WT binding | Mean % WT Binding (human CD33 H137A (human)): 114 % WT binding | Mean % WT Binding (human CD33 L148A (human)): 96.7 % WT binding | Mean % WT Binding (human CD33 A168S (human)): 117 % WT binding | Mean % WT Binding (human CD33 Y129A (human)): 155 % WT binding | Mean % WT Binding (human CD33 D79A (human)): 83.5 % WT binding | Mean % WT Binding (human CD33 R62A (human)): 114 % WT binding | Mean % WT Binding (human CD33 R69A (human)): 146 % WT binding | Mean % WT Binding (human CD33 E84A (human)): 109 % WT binding | Mean % WT Binding (human CD33 T86A (human)): 111 % WT binding | Mean % WT Binding (human CD33 V165A (human)): 118 % WT binding | Mean % WT Binding (human CD33 S164A (human)): 123 % WT binding | Mean % WT Binding (human CD33 S158A (human)): 113 % WT binding | Mean % WT Binding (human CD33 T185A (human)): 106 % WT binding | Mean % WT Binding (human CD33 P48S (human)): 2.6 % WT binding | Mean % WT Binding (human CD33 F43V (human)): 73.4 % WT binding
